Values of other authors in US20170128542A1 (Albireo Pharma, Inc., priority 2015, published 2017).

Assays:
[1] = not given; remark: listed apart in the source

Substance: glucagon
- Onset of action after injection: 5 to 20 min
- Glucagon decomposed into degradation products ([1]; acidic solution (pH 2-4), within 24 hours at 37° C.): 5-70%
- Aggregation in aqueous solutions of pH 3 or less ([1]; aqueous solution, pH 3 or less): aggregate to form a gel within an hour
